Test results reported in patent publication US10139419B2, “Methods for detecting Aβ oligomers” (SYSTEM OF SYSTEMS ANALYTICS, INC., priority 2014, dated 2018).
Bridge positions count the residues as written; N and C are the ends. Square brackets hold non-standard residues; d marks the D form. Ends that are not written are not given here. * marks the point of attachment. FITC = O=C1OC2(c3ccc(O)cc3Oc3cc(O)ccc32)c2ccc(NC(=S)*)cc21; Ahx = NCCCCCC(=O)O

Experiments:
Aβ oligomer [1] = biological target: T1, Aβ oligomer (Homo sapiens, UniProt P05067); test: PLISA using PEP-11 peptide probes on Aβ monomer, oligomer and fiber; assay type: binding
T1 sequence (P05067 672-713 limits assumed): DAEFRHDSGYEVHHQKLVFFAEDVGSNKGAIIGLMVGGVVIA
Excerpt: PEP-11ds is also represented by SEQ ID NO:64, but has a disulfide bridge at the two cysteines.

Aβ oligomer [2] = biological target: T1, Aβ oligomer; test: Peptide Linked Immunosorbent Assay (PLISA) compared with ELISA; assay type: binding; details: ELISA with Aβ antibody 6E10 labeled with horse radish peroxidase
Excerpt: FIG. 7 depicts different formats for a PLISA as described herein. PLISA (A) depicts a sandwich format in which a target oligomer, such as an Aβ oligomer (SDS Oligo), binds to both surface-bound peptide probe (peptide) and peptide probe tagged with a label (Tag). The complex is detected using a labeled antibody (Anti-TagAb-label). PLISA (B) depicts a sandwich format in which the peptide probe tagged with a label is replaced by a labeled antibody (Ab-label) specific to the Aβ oligomer. PLISA (C) depicts a sandwich format in which the surface-bound peptide probe is replaced with an antibody specific to the Aβ oligomer (Ab-6E10). PLISA (D) depicts a competitive format in which Aβ oligomer in a biological sample competes with surface-bound Aβ oligomer for a labeled peptide probe. Each of PLISA (A)-(D) can use a solid-phase format (shown here as a bead, in which the bead is passed through an apparatus for detecting the labels).
Different concentrations of Aβ oligomer in solution are subjected to both PLISA and ELISA to determine the sensitivity of each assay, as measured by dose response curves. For the PLISA assay, the peptide probe used is AD317 (SEQ ID NO:41). For the ELSIA, the antibody used is Aβ antibody 6E10 labeled with horse radish peroxidase. […]

Aβ42 oligomer [3] = biological target: T2, Aβ42 oligomer (Homo sapiens, UniProt P05067); test: Fluorescent anisotropy versus Aβ42 oligomer concentration; assay type: binding
T2 sequence (P05067 672-713 limits assumed): as above

Aβ42 oligomer [4] = biological target: T2, Aβ42 oligomer; test: Streptavidin bead binding assay with gel electrophoresis detection; details: column 4
Description: An assay is performed to analyze peptide probe binding to Aβ42 oligomer. The peptide probe is the same as the probe in EXAMPLE 8. Five samples are analyzed: (1) Aβ42 biotinylated oligomer as a positive control; (2) Aβ42 biotinylated oligomer bound to a bead via streptavidin; (3) peptide positive control; (4) peptide probe bound to Aβ42 biotinylated oligomer bound to a bead via streptavidin; and (5) peptide probe bound to a bead via streptavidin. Detection was by gel electrophoresis.

synthetic Aβ oligomer = biological target: T3, synthetic Aβ oligomer (Homo sapiens, UniProt P05067); test: Fluorescence detection assay of synthetic Aβ oligomer spiked into human CSF; assay type: binding; details: 10 mM HEPES pH 7.0; 0.005% NP-40; 10% normal human cerebrospinal fluid; 70 nM pyrenated peptide; 37° C.
T3 construct: The monomers can comprise one or more of Aβ3-42, Aβ37, Aβ38, Aβ39, Aβ40 and Aβ42; host or cells: synthetic peptide oligomer
T3 sequence (P05067 672-713 limits assumed): as above
Description: Samples of CSF from a normal human subject are spiked with different concentrations of synthetic Aβ oligomer, and subjected to fluorescence detection assay using peptide probe AD315 (SEQ ID NO:65). The detection is performed in an assay with the following conditions: 10 mM HEPES buffer at pH 7.0; 0.005% NP-40; 10% normal human cerebrospinal fluid; 70 nM pyrenated peptide; and 37° C. incubation.

Question: For “Pep11-a: consists of SEQ ID NO:64, at a purity of 86% (standard) ({FITC}-[Ahx]CLVFFAEDVGSNKGAIIGLMC[dR][dR]; not fully specified; cysteine pairing not given here)”, which “preferential detection/binding of Aβ oligomer as compared to Aβ monomer or fiber” value (Aβ oligomer [1]) is on record?
Answer: Its value is “preferentially detect Aβ oligomer”.

Question: “AD317: P22, biotin labeled with thrombin site linker, at C-terminus (KLVFFAEDVGSNKHAIIELMKGLVPRGSGK; not fully specified (residue 30, C-terminus); also: biotin label at C-terminus via thrombin site linker, attachment place not given here)” was tested. Which “sensitivity for detecting Aβ oligomer, PLISA vs ELISA (dose response curves)” value (Aβ oligomer [2]) did it give?
Answer: Its value is “more sensitive assay for detecting Aβ oligomer than the ELISA”.

Question: Which results are given for “AD315: Salt bridge at G29H and G33E; PBA and NH2 additions; pyrenated peptide (KLVFFAEDVGSNKHAIIELMK-NH2; not fully specified (N-terminus); also: PBA addition, pyrene label)”?
Answer: fluorescent anisotropy (milli-r) as a function of Aβ42 oligomer concentration (nN) (Aβ42 oligomer [3]): decreases as oligomer concentration increases; binding of peptide probe to bead-bound Aβ42 biotinylated oligomer (Aβ42 oligomer [4]): can be used to detect Aβ42 oligomer; fluorescence response to synthetic Aβ oligomer concentration (synthetic Aβ oligomer): linear, dose-dependent curve

Question: For “Pep11-b: consists of SEQ ID NO:64, at a purity of 95% (high) ({FITC}-[Ahx]CLVFFAEDVGSNKGAIIGLMC[dR][dR]; not fully specified; cysteine pairing not given here)”, which “preferential detection/binding of Aβ oligomer as compared to Aβ monomer or fiber” value (Aβ oligomer [1]) is on record?
Answer: Its value is “preferentially detect Aβ oligomer”.

Question: For “Pep11-ds: represented by SEQ ID NO:64, but has a disulfide bridge at the two cysteines ({FITC}-[Ahx]CLVFFAEDVGSNKGAIIGLMC[dR][dR]; disulfide 2-22; not fully specified)”, which “preferential detection/binding of Aβ oligomer as compared to Aβ monomer or fiber” value (Aβ oligomer [1]) is on record?
Answer: Its value is “preferentially detect Aβ oligomer”.
